# In US20210009673A1, “METHODS FOR REGULATING BREAST CANCERS” (priority 2018, published 2021):
# B1: pleiotrophin (protein, UniProt P21246 33-168, looked up)
# Pleiotrophin: GKKEKPEKKVKKSDCGEWQWSVCVPTSGDCGLGTREGTRTGAECKQTMKTQRCKIPCNWKKQFGAECKYQFQAWGECDLNTALKTRTGSLKRALHNAECQKTVTISKPCGKLTKPKPQAESKKKKKEGKKQEKMLD
# Assays:
# β-catenin [1] = assay: PTN-stimulated tyrosine phosphorylation of β-catenin in COS-7 cells (immunoprecipitation, Western blot); type: cell-based
# Method: FIG. 1: FIG. 1 illustrates in (A) PTN stimulation of tyrosine phosphorylation of β-catenin in cells that express RPTPβ/ζ and ALK. COS7 cells transiently expressing ALK and RPTPβ/ζ were stimulated with 10 ng PTN/ml. Cell lysates were prepared and used to immunoprecipitate β-catenin. The immunoprecipitates were analyzed in Western blots probed with anti-phosphotyrosine antibodies. Lane 1, cells transfected with ALK that were not stimulated with PTN. Lane 2, cells transfected with ALK stimulated with PTN. Lane 3, cells transfected with empty vector not stimulated with PTN. Lane 4, cells transfected with empty vector stimulated with PTN. […] The immunoprecipitates were analyzed in Western blots probed with anti-phosphotyrosine antibodies. […] Cell lysates were used to immunoprecipitate β-catenin and the immunoprecipitates were analyzed in Western blots probed with anti-phospho-tyrosine antibodies and reprobed with anti-β-catenin antibodies. […] MCF-7 cells that stably express EGFR/RPTPβ/ζ not transfected with ALK were analyzed as above. […] Lysates of MCF-7 cells and lysates of MCF-7 cells stimulated with EGF were used to immunoprecipitate β-catenin and the immunoprecipitates were analyzed in Western blots probed with anti-phospho-tyrosine antibodies and separately with anti-β-catenin antibodies. […]
# β-catenin [2] = assay: ubiquitination of β-catenin in HUVS cells (Rad23 capture); type: cell-based, human; conditions: 15 and 30 minutes after stimulation with PTN
# Method: FIG. 12: FIG. 12 illustrates: human umbilical vein stromal cells not stimulated (lane 1) or stimulated with 50 ng/ml of PTN for 15 (lane 2), or 30 minutes (lane 3) were used to prepare cell lysates that were incubated with Rad23-conjugated agarose beads to pull-down ubiquitinated proteins and analyzed in Western-blots probed with anti-β-catenin antibodies (upper panel) and reprobed with anti-ubiquitin antibodies (lower panel). Cells pre-incubated with LY294002 were stimulated with PTN for 15 minutes (lane 4). Cells pre-incubated with lactacystin were stimulated with PTN for 15 minutes (lane 5).
# Human umbilical vein stromal cells were lysed in a buffer prepared with 50 mM Tris, pH 7.2, 150 mM NaCl pH 7.5, 1% NP40, 0.25% sodium deoxicholate, Complete EDTA-free Protease Inhibitor Cocktail and 2 mM sodium orthovanadate. […] The beads were washed 4 times with lysis buffer and analyzed using Western blots.
# β-catenin is rapidly degraded through the ubiquitin proteasome proteolytic pathway, thereby setting steady state levels of β-catenin by balancing its degradation with new synthesis of this key regulatory protein. […] Proteins captured with Rad23 Sepharose were eluted and analyzed in Western blots probed with anti-β-catenin antibodies (FIG. 12, upper panel) and the blots were reprobed with anti-ubiquitin antibodies (FIG. 12, lower panel). […]
# GSK3β = assay: phosphorylation of GSK3β serine 9 in PTN-stimulated HUVS cells; type: cell-based, human; conditions: 5, 10 and 20 minutes after PTN
# Method: FIG. 11: FIG. 11 illustrates: human umbilical vein stromal cells not stimulated or stimulated with 50 ng/ml of PTN for 2, 5, 10 or 20 minutes were used to prepare cell lysates that were analyzed in Western blots probed with anti-phospho threonine 308 Akt (panel A), anti-phospho serine 473 Akt (panel B), anti-phospho-serine 9 GSK3β (panel C), anti-phospho-serine 33, 37 and […] β-catenin (panel D) or anti-actin antibodies (panel E). Akt was immunoprecipitated from those lysates using anti-Akt antibodies, incubated with a fusion peptide containing the 20 N-terminal amino acids of GSK3β and analyzed in Western-blots probed using anti-phospho-serine 9 GSK3β antibodies (panel F).
# Lysates from HUVS cells stimulated with PTN as above were then analyzed in Western blots probed with anti-phosphoserine 9 GSK3β antibodies. GSK3β is known to be phosphorylated by Akt at serine 9 and to inactivate its catalytic activity. […]
# The association of adaptor proteins that associate with specific phosphorylated sites in activated EGFR are responsible for the activation of phosphatidyl-inositol 3-kinase (PI3K). […] The cells were stimulated with PTN for 2, 5, 10, and 20 minutes, cell lysates were prepared, and the lysates were analyzed in Western blots probed with anti-phospho-Akt (Ser473), anti-phospho-GSKβ (Ser9), and anti-phospho-β-catenin (Thr42) antibodies. […]
molecule,measurement,setting,value
B1,tyrosine phosphorylation of β-catenin,β-catenin [1]; COS-7 cells expressing RPTPβ/ζ alone,failed to stimulate
same,increased tyrosine phosphorylation of β-catenin,"β-catenin [1]; COS-7 cells expressing both ALK and RPTPβ/ζ, 10 ng PTN/ml",about 3 fold
same,ubiquitinated β-catenin,β-catenin [2],decreased sharply
same,GSK3β serine 9 phosphorylation,GSK3β,striking increase
